Assays:
[1] = biological target: T1, human ErbB3/Her3-Fc (Acro biosystem) (human, UniProt P21860 20-643); assay: ELISA, plate coated with human ErbB3/Her3-Fc
T1 construct: Bought; also called human HER3; not shown: Fc part of a bought fusion protein

[2] = biological target: T2, hEGFR-Fc (Sino Biological) (human, UniProt P00533 25-645); assay: ELISA, plate coated with human EGFR-Fc, anti-His-HRP detection
T2 construct: Bought; also called human EGFR; humans EGFR-Fc protein; not shown: Fc part of a bought fusion protein

[3] = biological target: T2, hEGFR-Fc (Sino Biological); assay: antigen binding activity, summary table; assay not named on the sheet
[4] = biological target: T3, human CEACAM5-Fc (novoprotein) (human, UniProt P06731 35-685, limits assumed); assay: as above
T3 construct: Bought; not shown: Fc part of a bought fusion protein
T3 sequence (looked up): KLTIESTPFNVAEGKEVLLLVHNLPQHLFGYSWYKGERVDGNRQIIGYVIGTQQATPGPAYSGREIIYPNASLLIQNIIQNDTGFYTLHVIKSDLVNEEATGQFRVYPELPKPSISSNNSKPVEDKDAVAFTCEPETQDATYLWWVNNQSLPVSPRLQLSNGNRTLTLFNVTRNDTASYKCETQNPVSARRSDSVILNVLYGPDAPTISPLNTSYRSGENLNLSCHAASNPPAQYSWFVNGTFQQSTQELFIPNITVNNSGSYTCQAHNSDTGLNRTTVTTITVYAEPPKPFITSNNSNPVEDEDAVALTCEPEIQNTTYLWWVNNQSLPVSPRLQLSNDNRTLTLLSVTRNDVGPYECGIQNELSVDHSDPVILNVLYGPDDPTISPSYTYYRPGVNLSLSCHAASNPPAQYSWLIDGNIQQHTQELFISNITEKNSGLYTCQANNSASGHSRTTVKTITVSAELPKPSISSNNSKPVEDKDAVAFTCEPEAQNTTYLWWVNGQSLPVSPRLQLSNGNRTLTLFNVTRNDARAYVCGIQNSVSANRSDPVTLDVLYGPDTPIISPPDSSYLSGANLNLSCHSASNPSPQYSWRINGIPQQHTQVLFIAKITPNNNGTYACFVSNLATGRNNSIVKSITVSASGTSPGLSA

[5] = biological target: T4, human ErbB2/Her2-Fc (Acro biosystem) (human, UniProt P04626 23-652); assay: ELISA, plate coated with human ErbB2/Her2-Fc
T4 construct: Bought; also called human HER2; not shown: Fc part of a bought fusion protein

[6] = biological target: T5, Human VEGFR2-Fc (Sino Biological) (human, UniProt P35968 20-764); assay: antigen binding activity, summary table; assay not named on the sheet
T5 construct: Bought; not shown: Fc part of a bought fusion protein

[7] = biological target: T5, Human VEGFR2-Fc (Sino Biological); assay: ELISA, plate coated with human VEGFR2-Fc 1ug/ml, anti-His-HRP detection

T5 sequence (P35968 20-764 limits assumed): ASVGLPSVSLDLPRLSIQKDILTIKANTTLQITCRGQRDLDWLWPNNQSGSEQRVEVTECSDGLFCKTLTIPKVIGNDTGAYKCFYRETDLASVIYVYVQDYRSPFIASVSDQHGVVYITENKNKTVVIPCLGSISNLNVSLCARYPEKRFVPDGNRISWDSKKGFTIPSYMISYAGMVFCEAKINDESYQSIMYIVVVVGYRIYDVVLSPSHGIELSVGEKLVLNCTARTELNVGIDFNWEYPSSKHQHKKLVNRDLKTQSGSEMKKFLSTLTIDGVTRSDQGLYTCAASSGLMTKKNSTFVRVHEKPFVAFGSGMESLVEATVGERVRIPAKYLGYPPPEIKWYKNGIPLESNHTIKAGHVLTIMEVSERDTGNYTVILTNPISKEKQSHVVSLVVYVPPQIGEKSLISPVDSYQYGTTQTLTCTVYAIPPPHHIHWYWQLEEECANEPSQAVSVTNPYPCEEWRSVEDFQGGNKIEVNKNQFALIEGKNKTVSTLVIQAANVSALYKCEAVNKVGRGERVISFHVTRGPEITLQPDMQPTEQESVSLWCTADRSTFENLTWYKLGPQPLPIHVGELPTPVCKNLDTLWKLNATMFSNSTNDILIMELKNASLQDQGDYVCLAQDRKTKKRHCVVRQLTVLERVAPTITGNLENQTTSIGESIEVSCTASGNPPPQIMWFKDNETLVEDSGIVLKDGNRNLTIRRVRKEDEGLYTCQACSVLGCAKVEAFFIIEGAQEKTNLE

B1: BCD090-M2-CDoem3-H (VHH)
VHH: QVQLVQSGGGLVQAGGSLRLSCAFSGRTFSMYTMGWFRQAPGKEREFVAANRGRGLSPDIADSVNGRFTISRDNAKNTLYLQMDSLKPEDTAVYYCAADLQYGSSWPQRSSAEYDYWGQGTTVTVSS
[1]
  EC50 (read off the curve): ~0.5 nM

B2: VHH122-CD-H (VHH)
VHH: EVQLQESGGGLVQAGDSLRLSCLVSGRSFNSYTMGWFRQAPGKEREFVAAILWSGPTTYYADSVKGRFTISRDNAKNTVYLQMNSLKPEDTAVYYCAAALGVLVLAPGNVYSYWGQGTQVTVSS
notes: sdAb-cytosine deaminase fusion with C-terminal His-tag; Built from parts
[2]
  EC50 (read off the curve): ~0.8 nM

B3: DOM-16-39-CD-H (VHH)
sdAb-CD fusion: MDIQMTQSPTSLSASVGDRVTITCRASQWIGNLLDWYQQKPGEAPKLLIYYASFLQSGVPSRFSGGGFGTDFTLTISSLQPEDFATYYCQQANPAPLTFGQGTKVEIKRGGGGSGGGGSGGGGSVTGGMASKWDQKGMDIAYEEAALGYKEGGVPIGGCLINNKDGSVLGRGHNMRFQKGSATLHGEISTLENCGRLEGKVYKDTTLYTTLSPCDMCTGAIIMYGIPRCVVGENVNFKSKGEKYLQTRGHEVVVVDDERCKKIMKQFIDERPQDWFEDIGEGSSHHHHHH
[3]
  binding result: binds

B4: NbCEA5-CDoem3-H (VHH)
VHH: QVQLVESGGGSVQAGGSLRLSCAASGDTYGSYWMGWFRQAPGKEREGVAAINRGGGYTVYADSVKGRFTISRDTAKNTVYLQMNSLRPDDTADYYCAASGVLGGLHEDWFNYWGQGTQVTVSS
notes: as for B2
[4]
  binding result: binds

B5: 2D3-CDoem3-H (VHH)
VHH: EVQLVESGGSLVQPGGSLRLSCAASGFTFDDYAMSWVRQVPGKGLEWVSSINWSGTHTDYADSVKGRFTISRNNANNTLYLQMNSLKSEDTAVYYCAKNWRDAGTTWFEKSGSAGQGTQVTVSS
notes: as for B2
[5]
  EC50 (read off the curve): ~0.1 nM

B6: 3VGR19-CD-H (VHH)
VHH: QVQLQESGGGSVQAGGSLRLSCVASGYSVSKNSMGWFRQAPGKEREGVAGINEGGTATYYANSVKGRFTISQDNAKNTVYLQMNTLKPEDTAIYYCAAGSPDPPPLIESVVKYWGQGTQVTVSS
notes: sdAb-cytosine deaminase fusion with C-terminal His-tag, made in E. coli; Built from parts; An N-terminal Met may precede the sdAb
[6]
  binding result: binds

B7: 3VGR10-CD-H (VHH)
VHH: QVQLQESGGGSVQAGGSLRLSCVASGYSVSKNSMGWFRQAPGKEREGVAGINEGGTATYYANSVKGRFTISQDNARNTVYLQMNTLKPEDTAIYYCAAGSPDPPPLIESVVKYWGQGTQVTVSS
[6]
  binding result: binds

B8: 4VGR17-CD-H (VHH)
VHH: QVQLQESGGGSVQAGGSLRLSCVASGYSVSKNSMGWFRQAPGKEREGVAGINYGGTATYYANSVKGRFTISQDNAKNTVYLQMNTLKPEDTAIYYCAAGSPDPPPLIEGVVKYWGQGTQVTVSS
notes: as for B2
[7]
  EC50 (read off the curve): ~0.02 µg/mL

B9: 4VGR38-CD-H (VHH)
VHH: QVQLQESGGGSVQAGGSLTLSCEVSGYSVNSNSMGWFRQAPGKEREGVAGINEGGVSTYYANFVQGRFTISQDNAKNMVYLQMNSLKPEDTAIYYCAAGAPDPPPLIESIVKYWGQGTQVTVSS
notes: as for B2
[7]
  binding result: binds

B10: GE10-CD-H (other)
antigen binding fragment-CD fusion: MLHLWVPEPWTQTGGGGSGGGGSGGGGSVTGGMASKWDQKGMDIAYEEAALGYKEGGVPIGGCLINNKDGSVLGRGHNMRFQKGSATLHGEISTLENCGRLEGKVYKDTTLYTTLSPCDMCTGAIIMYGIPRCVVGENVNFKSKGEKYLQTRGHEVVVVDDERCKKIMKQFIDERPQDWFEDIGEGSSHHHHHH
[3]
  binding result: binds

B11: GE11-CD-H (other)
antigen binding fragment-CD fusion: MYHWYGYTPQNVIGGGGSGGGGSGGGGSVTGGMASKWDQKGMDIAYEEAALGYKEGGVPIGGCLINNKDGSVLGRGHNMRFQKGSATLHGEISTLENCGRLEGKVYKDTTLYTTLSPCDMCTGAIIMYGIPRCVVGENVNFKSKGEKYLQTRGHEVVVVDDERCKKIMKQFIDERPQDWFEDIGEGSSHHHHHH
[3]
  binding result: no binding

B12: Inherbin3-CD-H (other)
antigen binding fragment-CD fusion: MLVYNKLTFQLEPNPHTKGGGGSGGGGSGGGGSVTGGMASKWDQKGMDIAYEEAALGYKEGGVPIGGCLINNKDGSVLGRGHNMRFQKGSATLHGEISTLENCGRLEGKVYKDTTLYTTLSPCDMCTGAIIMYGIPRCVVGENVNFKSKGEKYLQTRGHEVVVVDDERCKKIMKQFIDERPQDWFEDIGEGSSHHHHHH
[3]
  binding result: binds

B13: Inherbin1-CD-H (other)
antigen binding fragment-CD fusion: MMLYNPTTYQMDVNPEGKGGGGSGGGGSGGGGSVTGGMASKWDQKGMDIAYEEAALGYKEGGVPIGGCLINNKDGSVLGRGHNMRFQKGSATLHGEISTLENCGRLEGKVYKDTTLYTTLSPCDMCTGAIIMYGIPRCVVGENVNFKSKGEKYLQTRGHEVVVVDDERCKKIMKQFIDERPQDWFEDIGEGSSHHHHHH
[3]
  binding result: no binding

B14: 47D5-CDoem3-H (VHH)
VHH: KVQLVESGGGLVQPGGSLRLSCAASGSIFGFNDMAWYRQAPGKQRELVALISRVGVTSSADSVKGRFTISRVNAKDTVYLQMNSLKPEDTAVYYCYMDQRLDGSTLAYWGQGTQVTVSS
notes: as for B2
[5]
  EC50 (read off the curve): ~0.2 nM

B15: 3VGR17-CD-H (VHH)
VHH: QVQLQESGGGSVQAGGSLRLSCAASGYTYCSYDMGWYRQAPGKEREFVSAIDNYGRTGYADSVKGRFTISQDNAKNTSYLQMNSLKPEDTAIYYCKVDVCPDPSRPGRPGYWGQGTQVTVSS
[6]
  binding result: binds

Source: US20220056149A1 (LUMOSA THERAPEUTICS, published 2022)
